# Results from the Immune Epitope Database (IEDB).
# Columns and labels:
# Experiment in all cases: IEDB peptide-MHC binding, purified MHC/competitive/radioactivity; ≥ and ≤ were set here for values at or beyond the usual limits of such assays
# HLA-A*02:01 = molecular target: HLA-A*02:01
# HLA-A*68:02 = molecular target: HLA-A*68:02
# HLA-A*02:06 = molecular target: HLA-A*02:06
# HLA-A*02:03 = molecular target: HLA-A*02:03
# HLA-A*02:02 = molecular target: HLA-A*02:02
# [1] = source organism: Vaccinia virus WR
# [2] = source organism: Hepacivirus hominis
Sequence,IC50 (HLA-A*02:01; [1]) [nM],IC50 (HLA-A*68:02; [1]) [nM],IC50 (HLA-A*02:06; [1]) [nM],IC50 (HLA-A*02:03; [1]) [nM],IC50 (HLA-A*02:02; [1]) [nM],other results
TIDKSSPLYI,1900,1550,1820,12,387,–
TSISGVLWTV,–,–,–,–,–,IC50 (HLA-A*02:01; [2]): 26 nM; IC50 (HLA-A*68:02; [2]): 2.2 nM; IC50 (HLA-A*02:06; [2]): 82 nM; IC50 (HLA-A*02:03; [2]): 27 nM; IC50 (HLA-A*02:02; [2]): 8.1 nM
YLYTEYFLFL,0.069,76,0.007,0.56,0.085,–
YLMCLSPLM,–,–,–,–,–,IC50 (HLA-A*02:01; source organism: SARS-CoV1): 0.34 nM; IC50 (HLA-A*68:02; source organism: SARS-CoV1): 1240 nM; IC50 (HLA-A*02:06; source organism: SARS-CoV1): 1.1 nM; IC50 (HLA-A*02:03; source organism: SARS-CoV1): 0.3 nM; IC50 (HLA-A*02:02; source organism: SARS-CoV1): 0.14 nM
AIMTRCLAV,–,–,–,–,–,IC50 (HLA-A*02:01; source organism: SARS-CoV1): 5.9 nM; IC50 (HLA-A*68:02; source organism: SARS-CoV1): 1300 nM; IC50 (HLA-A*02:06; source organism: SARS-CoV1): 27 nM; IC50 (HLA-A*02:03; source organism: SARS-CoV1): 15 nM; IC50 (HLA-A*02:02; source organism: SARS-CoV1): 51 nM
LVKDESIQL,3150,1470,1400,649,122,–
EVERLMELPV,1980,1220,3630,1430,2460,–
SLVITYCLVT,373,447,824,566,286,–
IIAVFDSKL,1760,2320,99,107,44,–
WISDNTHIYL,12,4.8,1.8,1.2,0.14,–
TLIQYRQQL,134,725,1880,410,128,–
LVSDCASTI,2740,71,61,17,49,–
IVDSMIIGHI,1060,53,561,208,507,–
FIASAPQQL,120,35,89,4.4,2,–
VQEFIFSAL,614,552,198,466,419,–
IQYRQQLEL,258,3570,41,45,511,–
IAVSVYGAI,884,7.8,1100,124,1480,–
